Results on four molecules are retold here after PMC3575842.

Among the targets are Sox21a (Drosophila melanogaster, UniProt Q9VUD1 1-388); slbo (Drosophila melanogaster, UniProt Q02637 1-449); gooseberry-neuro (gsb-n) (Drosophila melanogaster, UniProt P09083 1-449); gooseberry (gsb) (Drosophila melanogaster, UniProt P09082 1-427); Gsc (Drosophila melanogaster, UniProt P54366 1-415).
Test in all cases: MITOMI saturation binding
Another series addresses T1, z (Drosophila melanogaster, UniProt P09956 1-575).
T1 sequence: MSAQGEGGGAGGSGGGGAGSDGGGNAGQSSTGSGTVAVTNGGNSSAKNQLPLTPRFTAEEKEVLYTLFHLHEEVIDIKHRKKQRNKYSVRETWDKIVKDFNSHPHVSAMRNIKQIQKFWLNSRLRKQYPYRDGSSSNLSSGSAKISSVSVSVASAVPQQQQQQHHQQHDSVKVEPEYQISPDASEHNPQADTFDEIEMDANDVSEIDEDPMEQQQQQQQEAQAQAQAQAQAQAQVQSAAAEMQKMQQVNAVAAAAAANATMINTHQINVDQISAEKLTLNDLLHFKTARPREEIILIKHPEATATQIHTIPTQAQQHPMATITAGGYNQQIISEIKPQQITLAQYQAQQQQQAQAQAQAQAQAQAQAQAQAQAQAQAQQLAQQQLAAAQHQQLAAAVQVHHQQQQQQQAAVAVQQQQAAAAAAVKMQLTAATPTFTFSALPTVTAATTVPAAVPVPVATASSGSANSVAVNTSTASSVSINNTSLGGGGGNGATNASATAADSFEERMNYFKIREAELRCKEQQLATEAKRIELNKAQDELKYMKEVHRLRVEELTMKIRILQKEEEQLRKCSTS

slbo, sequence (Q02637 whole entry): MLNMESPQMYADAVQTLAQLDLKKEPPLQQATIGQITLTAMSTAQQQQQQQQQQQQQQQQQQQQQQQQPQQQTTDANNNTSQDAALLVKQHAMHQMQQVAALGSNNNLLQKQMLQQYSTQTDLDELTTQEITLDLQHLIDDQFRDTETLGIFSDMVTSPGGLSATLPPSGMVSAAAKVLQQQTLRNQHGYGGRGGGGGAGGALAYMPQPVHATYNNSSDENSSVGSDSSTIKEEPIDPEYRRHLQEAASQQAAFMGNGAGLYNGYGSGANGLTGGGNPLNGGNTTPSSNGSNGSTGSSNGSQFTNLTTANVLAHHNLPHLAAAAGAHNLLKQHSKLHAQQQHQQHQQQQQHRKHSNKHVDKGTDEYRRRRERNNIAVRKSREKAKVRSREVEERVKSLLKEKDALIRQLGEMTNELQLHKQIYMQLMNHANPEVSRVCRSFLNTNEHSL
Gsc, sequence (P54366 whole entry): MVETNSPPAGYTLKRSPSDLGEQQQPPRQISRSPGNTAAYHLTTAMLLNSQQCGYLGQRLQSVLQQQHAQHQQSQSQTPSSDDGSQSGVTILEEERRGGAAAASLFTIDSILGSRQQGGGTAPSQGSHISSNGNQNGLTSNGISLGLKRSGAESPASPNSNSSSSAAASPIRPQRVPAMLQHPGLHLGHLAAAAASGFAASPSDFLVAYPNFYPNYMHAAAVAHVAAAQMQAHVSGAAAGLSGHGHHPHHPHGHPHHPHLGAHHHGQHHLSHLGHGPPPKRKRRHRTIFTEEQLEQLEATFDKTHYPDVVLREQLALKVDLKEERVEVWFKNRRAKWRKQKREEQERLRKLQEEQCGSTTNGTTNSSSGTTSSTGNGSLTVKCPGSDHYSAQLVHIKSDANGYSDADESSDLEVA
gooseberry (gsb), sequence (P09082 whole entry): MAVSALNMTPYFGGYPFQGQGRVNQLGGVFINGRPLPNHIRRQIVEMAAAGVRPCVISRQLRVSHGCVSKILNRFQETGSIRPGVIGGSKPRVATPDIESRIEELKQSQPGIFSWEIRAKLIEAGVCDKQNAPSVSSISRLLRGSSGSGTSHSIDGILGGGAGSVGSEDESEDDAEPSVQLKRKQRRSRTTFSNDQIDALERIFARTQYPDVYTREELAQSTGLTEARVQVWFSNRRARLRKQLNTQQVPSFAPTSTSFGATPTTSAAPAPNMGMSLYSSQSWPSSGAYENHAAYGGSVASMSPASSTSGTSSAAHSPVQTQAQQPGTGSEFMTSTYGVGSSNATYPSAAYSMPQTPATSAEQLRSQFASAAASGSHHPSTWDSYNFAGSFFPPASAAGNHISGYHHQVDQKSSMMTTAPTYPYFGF
gooseberry-neuro (gsb-n), sequence (P09083 whole entry): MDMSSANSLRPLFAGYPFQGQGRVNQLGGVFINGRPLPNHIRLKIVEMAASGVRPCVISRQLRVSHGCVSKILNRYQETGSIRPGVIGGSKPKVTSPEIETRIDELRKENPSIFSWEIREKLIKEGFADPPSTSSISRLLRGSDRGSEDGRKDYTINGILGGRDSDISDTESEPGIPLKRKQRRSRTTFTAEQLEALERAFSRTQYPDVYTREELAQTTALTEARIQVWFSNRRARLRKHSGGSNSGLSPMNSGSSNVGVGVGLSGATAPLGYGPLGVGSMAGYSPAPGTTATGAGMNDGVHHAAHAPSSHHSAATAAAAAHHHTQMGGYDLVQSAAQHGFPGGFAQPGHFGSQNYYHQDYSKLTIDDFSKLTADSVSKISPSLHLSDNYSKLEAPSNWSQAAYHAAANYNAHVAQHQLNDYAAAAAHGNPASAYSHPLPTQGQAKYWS

B1: D motif (dsDNA)
DNA 1: CGCGTCCATTGTTCTCTCCGGCGGTATGAC
DNA 2: GTCATACCGCCGGAGAGAACAATGGACGCG
For the molecule B1, the binding result in the series with Sox21a is reported as “binds”.

B2: gt motif (dsDNA)
DNA 1: CGCATTACGTAATAACTCCGGCGGTATGAC
DNA 2: GTCATACCGCCGGAGTTATTACGTAATGCG
Take B2: in the series with slbo, the binding result is “binds”.

B3: prd motif (dsDNA)
DNA 1: CGCCCAATTTGTCACGCTCTCCGGCGGTATGAC
DNA 2: GTCATACCGCCGGAGAGCGTGACAAATTGGGCG
B3: the binding result with gooseberry-neuro (gsb-n), with gooseberry (gsb) and with z was “binds” throughout.

B4: bcd motif (dsDNA)
DNA 1: CGCGGATTAGCTCCGGCGGTATGAC
DNA 2: GTCATACCGCCGGAGCTAATCCGCG
On to B4, for which the binding result with Gsc and in the series with z was “binds” in each case.
